Measured values: the RNAGym collection of RNA variant scans (doi:10.1073/pnas.2313332121)

B1: TPR t1 (parent)
chain: GACCAAUCUGCCCUCAGAGCUCGAGAACAUCUUCGGAUGCAGAGGAGGCAGGCUUCGGUGGCGCGAUAGCGCCAACGUCCUCAACCUCCAAUGCAUCCCACCACAUGAUGAUGCCUGAAGAGCCUUGGUUUUUUG

Variants of: B1
Assay: polymerase ribozyme fitness, log enrichment relative to wild type (log ratio); higher = more active; in vitro selection for triplet polymerase activity
Procedure, shortened: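 One round of in vitro selection, in triplicate, was applied to PCR-built, transcribed mutant libraries of each subunit of a heterodimeric triplet polymerase ribozyme. The steps were annealing with a biotinylated primer, partner subunit and triplets, incubation frozen at −7 °C, gel excision of extended constructs, streptavidin-bead capture and RT-PCR. Fitness is the logarithm, base 2, of genotype enrichment over wild-type enrichment from inverse-variance-weighted replicate averages of Illumina-sequenced inputs and outputs, keeping genotypes with ≥10 input reads and ≥1 read per output.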

| Variant | polymerase ribozyme fitness (log ratio) |
| --- | --- |
| C15A A41U G60C U133A | -3.25 |
| C15U A50U G120C | -0.665 |
| C13U G17U | -2.37 |
| C13U C34U A111C C124U | -5.41 |
| U14G C40G C86U A90G U106A | -3.96 |
| C15G A16C G51U G61U G71C C79A U112G | -6.41 |
| C15U C22G G61C C114G | -7.09 |
| C13U G44A A50C G63A C85A | -3.07 |
| C13U C53G C56A G65A | -7.29 |
| U14G G69A A90C U112A G128A | -6.5 |
| C15A A37G C79G | -3.88 |
| C13U G135U | -0.441 |
| C15U C56A G69C U78C A83G U112C U116A | -6.66 |
| C15A G47U C115A A121C U133C | -3.65 |
| U14A C31U U87C U112G | -6.24 |
| U14A G52C C102U U106C C124G | -1.75 |
| C13U U78A | 0.102 |
| C15A C73G G117A G127U | -4.62 |
| C13U G42U | -1.12 |
| U14C U33C | -5.43 |
| C15U C79G C98U | -4.8 |

| Variant | polymerase ribozyme fitness (log ratio) |
| --- | --- |
| U14A A41C | -4.27 |
| C15G A18U C70U U116A G120U | -1.19 |
| C15G G110A | -3.78 |
| C13U C40A G61A | -0.491 |
| C15A C56U | -1.71 |
| C15A C56A | -0.645 |
| U14G C70G U116G U125A | -5.32 |
| U14G C56U C70A | -5.19 |
| C15A C49G | -2.46 |
| C13U U21C C64U | -0.0953 |
| C15U A18G A37G U54A A100U C115A | -5.29 |
| C15G C101A | -3.78 |
| C15G C101U | -2.56 |
| C13U C104A | -1.47 |
| C13U C56U U92C C114A | -1.92 |
| C15G C72U | -3.01 |
| C13U C40G G42A C79A | -4.76 |
| U14G G48U G60U | -2.56 |
| C13U G63C | -0.36 |
| C13U G63U | -0.742 |
| C15A G61A | -2.09 |

| Variant | polymerase ribozyme fitness (log ratio) |
| --- | --- |
| C15A G61C | -4.23 |
| U14G G42U G45C C64U C101U C123A G135U | -4.44 |
| C15G U92G C97U A118U | -4.66 |
| U14A G63C | -2.57 |
| U14C A75G | -1.81 |
| U14A G36U C40G C56A A84G C97A | -7.86 |
| C15U C56G G60U U78G U92A | -6.42 |
| C15U C72A C82U | -1.42 |
| U14C G47C | -2.99 |
| U14C A37C | -2.09 |
| C13U G117A | -1.27 |
| C15A G52A G117U | 0.0979 |
| U14G A37G G42A G77A | -4.88 |
| U14A A18U C73A G77C A119U | -3.61 |
| U14A C72U G93U U133A G135U | -4.17 |
| C13U G47C C73A C99U | -4.72 |
| U14A G63C C82U U132A | -3.33 |
| C15G C98G G120A C123A C124A | -6.86 |
| C13U G52C C94G A100U G113A | -2.95 |
| C15U A66G G71A C98A G113U | -7.64 |
| U14G C80U C102U C123G | -1.69 |

| Variant | polymerase ribozyme fitness (log ratio) |
| --- | --- |
| U14G G71A G120C | -0.108 |
| U14A A29G G113A | -5.5 |
| C13U G48A C56A G71A A90G | -4.36 |
| U14A G36A C56U | -3.35 |
| U14G G48A C64U U116A C123G U131C | -1.29 |
| C13U G61C | -1.59 |
| C15A C82G G117C G120C | -5.78 |
| C13U C62U G63C U112A | -0.823 |
| C15U C64U G77A G93C C98U G120A C124G | -1.82 |
| C15A G63U C72U U129G U131C | -4.85 |
| C15A G19A A50C A74G C102A C104A A121U U125G | -6.51 |
| C15A G69C | -3.57 |
| C13U C34A U54A U78C U112A G122C | -3.05 |
| C15G A46G C56G | -4.02 |
| U14A U116A A121G | 0.0546 |
| C13U C73U | -0.351 |
| U14G G69C | -3.2 |
| C15G C28A G44U G52U G69U | -5.21 |
| C13U U59C C70G | -4.01 |
| C15A G36A C72U U116A G120U | -4.34 |
| C15A C20U U109A | -5.4 |
